Test results as given in the supplement of paper PMC10724198.
± gives the standard deviation of the averaged measurements.

Assays:
Saccharomyces cerevisiae [1] = assay: protein stability index of tFT-peptide fusion (C-terminal peptide) (PSI (0-1 scale)); higher = more stable (slower turnover)
Method: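 MPS profiling in S. cerevisiae of the tFT-X12 degron library: putative degron peptides plus stable controls, 12 aa, fused to the C-terminus of a sfGFP-mCherry timer. Cells are FACS-sorted into 8 mCherry/sfGFP bins and deep-sequenced. PSI runs from 0 (unstable) to 1 (stable). Backgrounds are wild type, das1Δ and doa10Δ at 30 °C, and wild type, das1Δ, cdc34-1 and cdc53-1 at 37 °C; 2-3 technical replicates each.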

Saccharomyces cerevisiae [2] = assay: as above; details: genetic background: wild type; temperature: 30 C
[3] = genetic background: cdc34-1, temperature: 37 C
[4] = genetic background: cdc53-1, temperature: 37 C
[5] = genetic background: das1 deletion, temperature: 30 C
[6] = genetic background: das1 deletion, temperature: 37 C
[7] = genetic background: doa10 deletion, temperature: 30 C
[8] = genetic background: wild type, temperature: 30 C
[9] = genetic background: wild type, temperature: 37 C
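Also: PSI is a weighted mean of sequencing reads over stability bins, variants kept only with over 10 reads, mCherry proximal and sfGFP distal, peptide attached via GGGS linker.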

Row | Sequence | protein stability index (Saccharomyces cerevisiae [1]; [3]) | protein stability index (Saccharomyces cerevisiae [1]; [4]) | protein stability index (Saccharomyces cerevisiae [1]; [5]) | protein stability index (Saccharomyces cerevisiae [1]; [6]) | protein stability index (Saccharomyces cerevisiae [1]; [7]) | protein stability index (Saccharomyces cerevisiae [1]; [8]) | protein stability index (Saccharomyces cerevisiae [1]; [9]) | protein stability index (Saccharomyces cerevisiae [2])
1 | SGRGFSFVLCTV | 0.539 ± 0.039 | 0.599 ± 0.013 | 0.339 ± 0.035 | 0.58 ± 0.017 | 0.307 ± 0.013 | 0.339 ± 0.025 | 0.58 ± 0.015 | 0.4119 ± 2.1e-05
2 | ACVRFPLVLVVF | 0.0242 ± 0.0039 | 0.0448 ± 0.015 | 0.0965 ± 0.018 | 0.0904 ± 0.0059 | 0.0902 ± 0.022 | 0.0825 ± 0.029 | 0.0644 ± 0.0039 | 0.147 ± 0.014
3 | PLLLLLPSLLLV | 0.363 ± 0.027 | 0.413 ± 0.011 | 0.3 ± 0.029 | 0.439 ± 0.021 | 0.149 ± 0.0015 | 0.18 ± 0.017 | 0.248 ± 0.013 | 0.25 ± 0.025
4 | VLLYRIAPRLLH | 0.597 ± 0.079 | 0.6841 ± 0.0027 | 0.6298 ± 0.0035 | 0.735 ± 0.016 | 0.181 ± 0.019 | 0.202 ± 0.023 | 0.4082 ± 0.0026 | 0.303 ± 0.03
5 | RVIRHLRRISNF | 0.647 ± 0.035 | 0.745 ± 0.0042 | 0.661 ± 0.0098 | 0.705 ± 0.046 | 0.142 ± 0.009 | 0.16 ± 0.045 | 0.307 ± 0.034 | 0.369 ± 0.021
6 | FFLDVMFLLFFF | 0.501 ± 0.062 |  | 0.399 ± 0.036 | 0.524 ± 0.008 | 0.44 ± 0.022 | 0.399 ± 0.021 | 0.513 ± 0.0088 | 0.445 ± 0.037
7 | WSFYVVGRLLVN | 0.33 ± 0.031 | 0.383 ± 0.013 | 0.287 ± 0.024 | 0.45 ± 0.014 | 0.106 ± 0.0031 | 0.132 ± 0.0018 | 0.154 ± 0.015 | 0.124 ± 0.0045
8 | FPFFFLSILSAV | 0.262 ± 0.015 | 0.2944 ± 0.0028 | 0.256 ± 0.037 | 0.383 ± 0.0098 | 0.11 ± 0.0067 | 0.122 ± 0.023 | 0.168 ± 0.0078 | 0.177 ± 0.019
9 | GFIRVRHLRSLC | 0.55 ± 0.0029 | 0.658 ± 0.024 | 0.645 ± 0.019 | 0.7128 ± 0.0023 | 0.121 ± 0.019 | 0.138 ± 0.015 | 0.194 ± 0.026 | 0.234 ± 0.026
10 | SLASPPPLLILR | 0.372 ± 0.057 | 0.342 ± 0.023 | 0.326 ± 0.032 | 0.436 ± 0.038 | 0.60698 ± 1.5e-05 | 0.354 ± 0.0056 | 0.434 ± 0.01 | 0.346 ± 0.023
11 | NFFLLFFFFLSF | 0.455 ± 0.037 | 0.4876 ± 0.0038 | 0.398 ± 0.045 | 0.535 ± 0.0082 | 0.4656 ± 0.0034 | 0.41 ± 0.043 | 0.512 ± 0.022 | 0.415 ± 0.049
12 | CVCVVVCWRCGF | 0.378 ± 0.018 | 0.465 ± 0.035 | 0.306 ± 0.031 | 0.509 ± 0.021 | 0.276 ± 0.0091 | 0.327 ± 0.034 | 0.4555 ± 0.0043 | 0.481 ± 0.015
13 | FVLFCWFFCIVW | 0.293 ± 0.019 | 0.326 ± 0.029 | 0.263 ± 0.011 | 0.3625 ± 0.00095 | 0.286 ± 0.032 | 0.226 ± 0.033 | 0.342 ± 0.012 | 0.273 ± 0.043
14 | QVVWAVPRICLV | 0.53508 ± 0.00047 | 0.567 ± 0.0099 | 0.438 ± 0.015 | 0.579 ± 0.0091 | 0.335 ± 0.015 | 0.358 ± 0.028 | 0.505 ± 0.019 | 0.445 ± 0.063
15 | LFFFVCYLATVK | 0.198 ± 0.0088 | 0.347 ± 0.11 | 0.23 ± 0.032 | 0.416 ± 0.017 | 0.166 ± 0.011 | 0.191 ± 0.02 | 0.326 ± 0.0072 | 0.276 ± 0.053
16 | SGLVAFSVCCRG | 0.4091 ± 0.00089 | 0.449 ± 0.036 | 0.301 ± 0.039 | 0.5177 ± 0.0048 | 0.2625 ± 0.0015 | 0.308 ± 0.02 | 0.4862 ± 0.0037 | 0.433 ± 0.021
17 | VTSVARVVLHLL | 0.526 ± 0.018 | 0.681 ± 0.031 | 0.606 ± 0.027 | 0.7016 ± 0.0041 | 0.0931 ± 0.019 | 0.115 ± 0.021 | 0.165 ± 0.0027 | 0.3069 ± 0.0026
18 | LLQCRTGLASGR | 0.685 ± 0.032 | 0.732 ± 0.043 | 0.649 ± 0.013 | 0.748 ± 0.0087 | 0.652 ± 0.029 | 0.656 ± 0.043 | 0.718 ± 0.043 | 0.518 ± 0.13
19 | KRLALVSCSICG | 0.569 ± 0.03 | 0.6459 ± 0.003 | 0.446 ± 0.025 | 0.6239 ± 0.002 | 0.321 ± 0.028 | 0.351 ± 0.031 | 0.583 ± 0.0087 | 0.4681 ± 0.0043
20 | CVPAPCGRASCR | 0.697 ± 0.013 | 0.7301 ± 0.0034 | 0.64 ± 0.041 | 0.743 ± 0.0076 | 0.63 ± 0.0079 | 0.658 ± 0.018 | 0.706 ± 0.022 | 0.698 ± 0.016

Row | Sequence | protein stability index (Saccharomyces cerevisiae [1]; [3]) | protein stability index (Saccharomyces cerevisiae [1]; [4]) | protein stability index (Saccharomyces cerevisiae [1]; [5]) | protein stability index (Saccharomyces cerevisiae [1]; [6]) | protein stability index (Saccharomyces cerevisiae [1]; [7]) | protein stability index (Saccharomyces cerevisiae [1]; [8]) | protein stability index (Saccharomyces cerevisiae [1]; [9]) | protein stability index (Saccharomyces cerevisiae [2])
21 | VVFWFPFVLRCC | 0.0644 ± 0.019 | 0.0927 ± 0.0061 | 0.193 ± 0.03 | 0.2959 ± 0.0026 | 0.0639 ± 0.0037 | 0.0509 ± 0.0053 | 0.072 ± 0.034 | 0.065 ± 0.017
22 | PTAGFFGLLVLV | 0.361 ± 0.0094 | 0.402 ± 0.035 | 0.294 ± 0.029 | 0.439 ± 0.005 | 0.279 ± 0.0034 | 0.286 ± 0.02 | 0.4087 ± 0.00047 | 0.397 ± 0.005
23 | RTRVRKTRIRTC | 0.624 ± 0.039 | 0.6934 ± 0.0022 | 0.637 ± 0.018 | 0.724 ± 0.015 | 0.234 ± 0.02 | 0.277 ± 0.0072 | 0.517 ± 0.011 | 0.392 ± 0.021
24 | SGRKNQRILGLY | 0.656 ± 0.1 | 0.7334 ± 0.0067 | 0.6488 ± 0.0054 | 0.731 ± 0.023 | 0.199 ± 0.029 | 0.221 ± 0.038 | 0.497 ± 0.011 | 0.301 ± 0.055
25 | QWRSWSFATLVT | 0.332 ± 0.017 | 0.321 ± 0.012 | 0.266 ± 0.049 | 0.424 ± 0.0064 | 0.22 ± 0.0082 | 0.258 ± 0.038 | 0.409 ± 0.0052 | 0.383 ± 0.0045
26 | EFEIALTLIRSI | 0.665 ± 0.026 | 0.733 ± 0.0039 | 0.593 ± 0.01 | 0.726 ± 0.011 | 0.304 ± 0.009 | 0.361 ± 0.055 | 0.572 ± 0.031 | 0.49 ± 0.057
27 | VFGSVAALRLLM | 0.666 ± 0.048 | 0.73216 ± 0.00032 | 0.6508 ± 0.0024 | 0.7704 ± 0.003 | 0.193 ± 0.007 | 0.208 ± 0.042 | 0.414 ± 0.036 | 0.378 ± 0.095
28 | SVLRCPVILLAY | 0.0423 ± 0.031 | 0.0232 ± 0.0025 | 0.0735 ± 0.036 | 0.0681 ± 0.008 | 0.0717 ± 0.0093 | 0.078 ± 0.017 | 0.0527 ± 0.02 | 0.0975 ± 0.012
29 | STSSVMVFLRMC | 0.5544 ± 0.0036 | 0.681 ± 0.038 | 0.601 ± 0.013 | 0.708 ± 0.036 | 0.14 ± 0.003 | 0.124 ± 0.01 | 0.161 ± 0.042 | 0.281 ± 0.057
30 | GQFVISVRFLYE | 0.454 ± 0.045 | 0.503 ± 0.044 | 0.412 ± 0.024 | 0.5374 ± 0.0031 | 0.389 ± 0.0083 | 0.417 ± 0.024 | 0.516 ± 0.011 | 0.515 ± 0.068
31 | LVLSVWFFNCTS | 0.485 ± 0.0093 | 0.569 ± 0.021 | 0.422 ± 0.032 | 0.573 ± 0.022 | 0.277 ± 0.0063 | 0.283 ± 0.039 | 0.5196 ± 0.0025 | 0.424 ± 0.021
32 | RICACHGIRFIP | 0.7111 ± 0.0033 | 0.742 ± 0.0023 | 0.637 ± 0.04 | 0.774 ± 0.051 | 0.3558 ± 0.0018 | 0.392 ± 0.032 | 0.617 ± 0.016 | 0.444 ± 0.064
33 | GHSALWQVPRLM | 0.697 ± 0.053 | 0.733 ± 0.014 | 0.65 ± 0.048 | 0.7535 ± 0.0069 | 0.26 ± 0.013 | 0.29 ± 0.0041 | 0.574 ± 0.023 | 0.474 ± 0.015
34 | SRLVSRLGLYLS | 0.656 ± 0.054 | 0.71 ± 0.0097 | 0.626 ± 0.013 | 0.728 ± 0.035 | 0.214 ± 0.0099 | 0.22 ± 0.022 | 0.475 ± 0.03 | 0.361 ± 0.02
35 | ISTRLALCACVC | 0.184 ± 0.027 | 0.18 ± 0.0098 | 0.245 ± 0.019 | 0.3009 ± 0.0026 | 0.1999 ± 0.00074 | 0.208 ± 0.017 | 0.245 ± 0.0031 | 0.3273 ± 0.0032
36 | CSLRGLFLVVSV | 0.3652 ± 0.0033 | 0.396 ± 0.018 | 0.289 ± 0.032 | 0.474 ± 0.016 | 0.339 ± 0.025 | 0.292 ± 0.02 | 0.451 ± 0.01 | 0.405 ± 0.0065
37 | CRLATILRITAL | 0.574 ± 0.028 | 0.665 ± 0.026 | 0.552 ± 0.022 | 0.658 ± 0.021 | 0.193 ± 0.008 | 0.241 ± 0.031 | 0.4445 ± 0.00077 | 0.384 ± 0.018
38 | RSFGGRPWVLFL | 0.623 ± 0.037 | 0.733 ± 0.023 | 0.638 ± 0.018 | 0.7549 ± 0.0052 | 0.106 ± 0.014 | 0.0971 ± 0.025 | 0.255 ± 0.019 | 0.192 ± 0.034
39 | LLLRSSRLRVLS | 0.543 ± 0.064 | 0.619 ± 0.03 | 0.607 ± 0.013 | 0.6521 ± 0.005 | 0.0852 ± 0.0037 | 0.0918 ± 0.02 | 0.149 ± 0.021 | 0.176 ± 0.065
